Source: article PMC3539201 (Journal of cell science, 2008)

T1: torsinA (endogenous, 293T cells) (human (endogenous in 293T), UniProt O14656 21-332)
T1 sequence (looked up): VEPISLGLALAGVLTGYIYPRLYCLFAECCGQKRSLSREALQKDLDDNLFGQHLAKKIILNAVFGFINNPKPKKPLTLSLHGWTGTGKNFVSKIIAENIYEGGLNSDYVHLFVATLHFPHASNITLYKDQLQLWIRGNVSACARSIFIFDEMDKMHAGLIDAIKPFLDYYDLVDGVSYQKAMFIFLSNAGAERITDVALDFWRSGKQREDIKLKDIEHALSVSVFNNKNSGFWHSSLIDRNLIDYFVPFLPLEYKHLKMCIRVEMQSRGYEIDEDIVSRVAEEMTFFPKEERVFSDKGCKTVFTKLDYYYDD

B1: GFP-KASH-2 (domain or fragment)
chain: not shown
B2: GFP-KASH-3α (domain or fragment, mouse, UniProt Q4FZC9 917-975, looked up)
chain: CSLLQKACRVALPLQLLLLLFLLLLFLLPAGEEERSCALANNFARSFALMLRYNGPPPT
B3: GFP-KASH-1 (domain or fragment)
chain: not shown

target: T1, torsinA (endogenous, 293T cells); assay: co-IP

**Q.** For B1, which “percentage immunoprecipitated from lysates by torsinA antibodies” value (shortened to “percentage immunoprecipitated”) is on record?
**A.** 12%

**Q.** With B2 as the binder, how does the “percentage immunoprecipitated” value read?
**A.** 11%

**Q.** B3 was tested. Which “percentage immunoprecipitated” value did it give?
**A.** 21%
